Source: patent publication US20210115113A1 (CITY OF HOPE, published 2021)

Columns and labels:
[1] = target: humanized 72A1 (h72A1); test: ELISA, mAb 10 µg/ml captured on soluble gp350, HRP secondary 1:2,000
[2] = target: murine 72A1 (m72A1), anti-EBV gp350 neutralizing antibody from hybridoma HB168; test: as above
[3] = target: EBV gp350 on EBV-eGFP virions (Epstein-Barr virus) (UniProt P03200); test: cell-based or functional assay
[4] = target: T1, EBV gp350 expressed on the surface of stably transfected CHO cells (Epstein-Barr virus, UniProt P03200 1-907); test: cross-competition on gp350-CHO cells (flow), unlabeled 500 µg/ml; competitor: biotinylated HB5
T1 construct: also called native gp350; gp350 expressing CHO cells
T1 sequence: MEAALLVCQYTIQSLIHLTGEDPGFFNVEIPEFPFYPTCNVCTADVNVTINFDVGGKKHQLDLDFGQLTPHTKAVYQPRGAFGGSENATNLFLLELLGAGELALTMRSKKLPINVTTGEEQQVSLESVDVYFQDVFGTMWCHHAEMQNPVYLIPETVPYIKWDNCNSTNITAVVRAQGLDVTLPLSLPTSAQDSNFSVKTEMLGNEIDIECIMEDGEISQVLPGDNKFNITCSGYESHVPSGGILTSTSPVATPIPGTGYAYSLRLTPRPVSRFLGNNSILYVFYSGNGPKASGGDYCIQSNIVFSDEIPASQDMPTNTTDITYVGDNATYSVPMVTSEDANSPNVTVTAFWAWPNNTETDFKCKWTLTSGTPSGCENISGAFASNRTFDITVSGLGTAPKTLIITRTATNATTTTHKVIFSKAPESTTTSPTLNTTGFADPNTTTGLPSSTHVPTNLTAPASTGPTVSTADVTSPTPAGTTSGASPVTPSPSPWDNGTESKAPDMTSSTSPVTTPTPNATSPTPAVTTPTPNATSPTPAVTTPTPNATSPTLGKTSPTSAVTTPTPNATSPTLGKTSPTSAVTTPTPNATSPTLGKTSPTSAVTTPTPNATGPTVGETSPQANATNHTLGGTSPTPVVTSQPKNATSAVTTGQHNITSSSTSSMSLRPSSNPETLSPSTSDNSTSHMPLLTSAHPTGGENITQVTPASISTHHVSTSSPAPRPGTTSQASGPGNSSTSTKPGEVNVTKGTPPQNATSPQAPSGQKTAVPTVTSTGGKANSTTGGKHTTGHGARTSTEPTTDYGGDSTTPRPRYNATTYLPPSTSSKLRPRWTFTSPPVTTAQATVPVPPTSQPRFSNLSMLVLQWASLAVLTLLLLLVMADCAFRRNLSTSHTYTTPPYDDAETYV

[5] = target: T1, EBV gp350 expressed on the surface of …; test: cell competition (flow), unlabeled 67.5 µg/ml; competitor: biotinylated m72A1 1 µg/ml
[6] = target: T1, EBV gp350 expressed on the surface of …; test: cell competition (flow), unlabeled 125 µg/ml; competitor: biotinylated m72A1 1 µg/ml
[7] = target: T1, EBV gp350 expressed on the surface of …; test: cell competition (flow), unlabeled 500 µg/ml; competitor: biotinylated m72A1 1 µg/ml
[8] = target: T1, EBV gp350 expressed on the surface of …; test: cross-competition on gp350-CHO cells (flow), unlabeled 500 µg/ml; competitor: biotinylated h72A1
[9] = target: T1, EBV gp350 expressed on the surface of …; test: cross-competition on gp350-CHO cells (flow), unlabeled 500 µg/ml; competitor: biotinylated HB1
[10] = target: T1, EBV gp350 expressed on the surface of …; test: cross-competition on gp350-CHO cells (flow), unlabeled 500 µg/ml; competitor: biotinylated 54A1
[11] = target: T1, EBV gp350 expressed on the surface of …; test: cell competition (flow), unlabeled 250 µg/ml; competitor: biotinylated m72A1 1 µg/ml
[12] = target: T1, EBV gp350 expressed on the surface of …; test: cross-competition on gp350-CHO cells (flow), unlabeled 500 µg/ml; competitor: biotinylated HB20
[13] = target: T2, EBV gp350 on EBV-eGFP virions (Epstein-Barr virus, UniProt P03200 1-907); test: cell-based or functional assay
T2 sequence: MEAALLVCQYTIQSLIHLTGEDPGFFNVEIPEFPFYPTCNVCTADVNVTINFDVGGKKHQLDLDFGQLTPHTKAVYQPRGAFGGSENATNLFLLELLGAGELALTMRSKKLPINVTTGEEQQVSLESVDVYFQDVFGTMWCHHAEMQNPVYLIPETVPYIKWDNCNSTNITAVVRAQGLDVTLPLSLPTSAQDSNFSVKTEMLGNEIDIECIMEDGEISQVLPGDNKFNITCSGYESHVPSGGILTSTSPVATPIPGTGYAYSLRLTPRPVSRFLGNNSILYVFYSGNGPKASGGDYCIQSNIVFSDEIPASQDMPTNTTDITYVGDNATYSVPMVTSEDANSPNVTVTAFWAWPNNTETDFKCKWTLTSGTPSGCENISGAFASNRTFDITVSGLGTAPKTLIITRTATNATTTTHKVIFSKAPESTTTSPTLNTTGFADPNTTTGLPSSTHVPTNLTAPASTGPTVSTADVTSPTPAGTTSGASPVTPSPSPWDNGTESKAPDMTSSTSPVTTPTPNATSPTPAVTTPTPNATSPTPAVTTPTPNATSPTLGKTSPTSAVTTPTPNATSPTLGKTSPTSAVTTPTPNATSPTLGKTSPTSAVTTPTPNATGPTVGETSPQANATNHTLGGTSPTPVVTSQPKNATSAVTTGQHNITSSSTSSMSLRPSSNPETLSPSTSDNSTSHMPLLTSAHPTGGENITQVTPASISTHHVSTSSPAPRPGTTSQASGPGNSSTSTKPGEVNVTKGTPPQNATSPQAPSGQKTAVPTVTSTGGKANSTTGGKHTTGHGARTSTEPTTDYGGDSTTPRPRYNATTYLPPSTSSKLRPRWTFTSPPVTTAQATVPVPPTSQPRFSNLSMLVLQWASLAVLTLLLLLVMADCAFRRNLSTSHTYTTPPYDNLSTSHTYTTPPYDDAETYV

[14] = target: T1, EBV gp350 expressed on the surface of …; test: cross-competition on gp350-CHO cells (flow), unlabeled 500 µg/ml; competitor: biotinylated m72A1
[15] = target: T1, EBV gp350 expressed on the surface of …; test: cross-competition on gp350-CHO cells (flow), unlabeled 500 µg/ml; competitor: biotinylated HB17
[16] = target: T1, EBV gp350 expressed on the surface of …; test: cross-competition on gp350-CHO cells (flow), unlabeled 500 µg/ml; competitor: biotinylated HB11

murine 72A1 (m72A1), anti-EBV gp350 neutralizing antibody from hybridoma HB168, sequence (VH): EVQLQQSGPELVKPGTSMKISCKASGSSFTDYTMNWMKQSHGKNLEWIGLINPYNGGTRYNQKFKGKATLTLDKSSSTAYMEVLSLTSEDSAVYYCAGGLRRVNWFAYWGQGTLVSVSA
murine 72A1 (m72A1), anti-EBV gp350 neutralizing antibody from hybridoma HB168, sequence (VL): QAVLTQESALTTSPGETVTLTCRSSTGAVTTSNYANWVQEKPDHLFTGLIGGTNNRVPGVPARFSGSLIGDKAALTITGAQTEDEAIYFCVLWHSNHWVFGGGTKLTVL
murine 72A1 (m72A1), anti-EBV gp350 neutralizing antibody from hybridoma HB168, sequence (VH, as listed by the source limits assumed, chain 1 of 2): as the sequence (VH) above
murine 72A1 (m72A1), anti-EBV gp350 neutralizing antibody from hybridoma HB168, sequence (VL, as listed by the source limits assumed, chain 2 of 2): as the sequence (VL) above
humanized 72A1 (h72A1), sequence (VH, as listed by the source limits assumed, chain 1 of 2): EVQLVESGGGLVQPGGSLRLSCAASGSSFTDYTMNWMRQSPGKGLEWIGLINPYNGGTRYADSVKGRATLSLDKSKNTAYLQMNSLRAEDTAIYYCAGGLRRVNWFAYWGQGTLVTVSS
humanized 72A1 (h72A1), sequence (VL, as listed by the source limits assumed, chain 2 of 2): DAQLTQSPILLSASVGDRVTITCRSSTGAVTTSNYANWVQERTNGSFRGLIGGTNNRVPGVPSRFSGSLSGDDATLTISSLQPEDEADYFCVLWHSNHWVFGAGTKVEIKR

| Molecule | fold ELISA signal over the background [1] [fold] | fold ELISA signal above the background (1× PBS) [2] [fold] | fold ELISA signal as compared to goat anti-human IgG [2] [fold] | % blocking of EBV-eGFP infection of Raji cells at 12.5 µg/ml [3] [%] | % neutralization of EBV-eGFP infection of Raji cells, 12.5-100 µg/ml [3] [%] | % inhibition of biotinylated nAbs [4] [%] | % inhibition of biotinylated nAbs [5] [%] | % inhibition of biotinylated nAbs [6] [%] | % inhibition of biotinylated nAbs [7] [%] | % inhibition of biotinylated nAbs [8] [%] | % inhibition of biotinylated nAbs [9] [%] | % inhibition of biotinylated nAbs [10] [%] | % inhibition of biotinylated nAbs [11] [%] | % inhibition of biotinylated nAbs [12] [%] | % neutralization of EBV-eGFP infection of Raji cells at 100 µg/ml [13] [%] | % inhibition of biotinylated nAbs [14] [%] | % inhibition of biotinylated nAbs [15] [%] | % inhibition of biotinylated nAbs [16] [%] |
| --- | --- | --- | --- | --- | --- | --- | --- | --- | --- | --- | --- | --- | --- | --- | --- | --- | --- | --- |
| HRP-conjugated goat anti-human IgG (antibody) | 2100 |  |  |  |  |  |  |  |  |  |  |  |  |  |  |  |  |  |
| HRP-conjugated goat anti-mouse IgG (antibody) |  | 28 | 9 |  |  |  |  |  |  |  |  |  |  |  |  |  |  |  |
| murine 72A1 (m72A1), anti-EBV gp350 neutralizing antibody from hybridoma HB168 |  |  |  | 93 | 35 to 80 |  |  |  |  |  |  |  |  |  |  |  |  |  |
| HB1 (antibody, V domains shown) VH: PGLVAPSQSLSITCTVSGFLLTTYGVHWVRQPPGKGLEWLGVIWAGGSTNYNSALMSRLSINKDISKSQVFLKMNSLQTDDTAMYYCTRDRGYGYLYAMDYWGQGTSVTVSS VL: KFMSTSVGDRVSVTCKASQNVGTNVAWYQQKPGQSPKALIYSTSSRYTGVPDRFAGSGSGTDYTLTISNVQSEDLAEYFCQQYNTYPYTFGGGTRLDIKR |  |  |  |  |  | 97 | 81 | 81 | 91 | 95 | 92 | 4 | 89 | 61 | 90 | 98 | 16 | 96 |
| HB20 (antibody, V domains shown) VH: ELVKPGASVKLSCKASGYTFTSYWIQWVKQRPGQGLEWIGEINPTNGHTNYNEKFKTKATLTVDKSSSTAYMRLSSLTSEDSAVYYCARNLYYYGRPDYWGQGTSVTVSS VL: SSLSASLGDRVTISCRASQDIGNYLNWYQQKPDGTVKLLIYYTSRLHSGVPSRFSGSGSGTDYSLTISNLEQEDIATYFCQQGNALPPTFGGGTKLEIKR |  |  |  |  |  | 97 | 89 | 87 | 96 | 96 | 88 | 0 | 91 | 59 | 90 | 98 | 13 | 89 |
| HB11 (antibody, V domains shown) VH: PSLVKPSQTLSLTCSVTGDSITSGFWNWIRKFPGNKLEYMGYISYSGSTYYNPSLKSRISITRDTSKNQYYLQLNSVTTEDTATYYCARGNGGNYDWYFDVWGAGTTVTVSS VL: AIMSASLGEKVTMSCRASSSVNFMNWYQQKSDDSPKLLIYYISNLAPGVPARFSGSGSGNSYSLTISGMEGEDAATYYCQQFTSSPSWTFGGGTKLEIKR |  |  |  |  |  | 96 | 87 | 89 | 95 | 97 | 93 | 9 | 95 | 3 | 90 | 97 | 17 | 96 |
